Paper PMC9891525

Target: SARS-CoV-2 Delta variant S1 protein (SARS-CoV-2)
Assay: SPR

With original monoclonal antibody REGN10987 the Kd was 0.9 nM.
